Experimental data reported in a protein production outcome set (Wang et al. 2014).

Assay: label from the status in PepcDB records

MTMNPLPLQKEAEKRSPRLNSPFKSLMRIHWWMALAYLIVFCTGTLMVNLERGQFLRSELYDFHKSIGILTMALLTWRIFTLLQVWWRKYTKRPPKLSLAWWRTFTLHLSLYVFMGVIPISGFLLSNSFKANNVRFFSITLPDIFPQNEAMVEIGRNAHFWLAYTFLIFIFIHMLTYWKVIRANWRRWVNFIGKFQQQT
protein production: failed

MTMTLHTKASGMALLHQIQGNELEPLNRPQLKIPLERPLGEVYLDSSKPAVYNYPEGAAYEFNAAAAANAQVYGQTGLPYGPGSEAAAFGSNGLGGFPPLNSVSPSPLMLLHPPPQLSPFLQPHGQQVPYYLENEPSGYTVREAGPPAFYRPNSDNRRQGGRERLASTNDKGSMAMESAKETRYCAVCNDYASGYHYGVWSCEGCKAFFKRSIQGHNDYMCPATNQCTIDKNRRKSCQACRLRKCYEVGMMKGGIRKDRRGGRMLKHKRQRDDGEGRGEVGSAGDMRAANLWPSPLMIKRSKKNSLALSLTADQMVSALLDAEPPILYSEYDPTRPFSEASMMGLLTNLADRELVHMINWAKRVPGFVDLTLHDQVHLLECAWLEILMIGLVWRSMEHPVKLLFAPNLLLDRNQGKCVEGMVEIFDMLLATSSRFRMMNLQGEEFVCLKSIILLNSGVYTFLSSTLKSLEEKDHIHRVLDKITDTLIHLMAKAGLTLQQQHQRLAQLLLILSHIRHMSNKGMEHLYSMKCKNVVPLYDLLLEMLDAHRLHAPTSRGGASVEETDQSHLATAGSTSSHSLQKYYITGEAEGFPATV
protein production: not failed

MTNAFSEELALEAAGLDAIFGKDFKAEETTTGHVRWSVPLSHNGVELELAFLLDSAYPLDSEPQVRVTCKEGLSLRAVRELEGHLQKVAAENRGSPSAYLLYTAAQDWIDTHDRREAAEAISATIASTRLSAREPDSAGTGTTFETKAESFTQLVEHETLEHATIDRTLGTPVTPETFAAWKQEFDKYLLENGILDIANNADIELDASQGGWKGNSRRKPTGRELFTMHREMFVDDFEESDQCESTASGACDTQGSELAEHVDASLFLS
protein production: failed

MTNDQIKKAKNGTYYFRANLGYDVKGKKIQKYRSGFKTKKEAREEYSRLLLMNPDDLNENKDKMMFEYYINEIFLPWYKTQVKLRTYENRIPTIQKHFPYFYKMAVSDIEPINVQDWQLKMTKNLKPSYVRAVQGLFSVAMDRAIVLGITTTNPSKIIGNVKKVKPKVEFWTKEEFEKVLSLIYKEDYYQNFLFISLWFLFMTGMRIGEATAIQWEDIDFETGVVSITKTLYYKSQIDYKFVEPKTKASVRHIVLDKVTLSYLADWREVQQNVVKTNFVMSYNGIPTQKHTIAHAIDRFSKMAGIHRIKIHALRHSHASLLISMGENPLIIKERLGHEDIETTLGTYGHLYPNSNFEVASKLNGIISFQPAEQNLDSSPKNQFTVNYRQNKQPNSAIKVQ
protein production: failed

MTNGKIWLVVKPTVGVPLFLSAAVIASVVIHAAVLTTTTWLPDYYQGSAKVAAE
protein production: failed

MTNHQKRLAVPKSWPVERKEEAYTTKAAAGPHGEEGVPLLIVLRDVLGYVDSKKEARYALEQDSILINGTAVSDERRPVGMFDILAFDEREEYYRIFPDEGGRLSLTPIDEDAAGSKLGKIVGKTQVAGGDTQLSLHDGETLLVEDATAYDTNDSIVVSNDGEEIVAHFTYEEGALVTAVSGAHAGRIGTIDEIQVTPGSSANNVLIDAENDDERFETVEEYVVVIDENFTDGGDDE
protein production: failed

MTNKRVVQTFLATSALFLAMSGMSARAQDASAPAAGAPAPSAAAPMHHHGSGFKKLDTNGDGMVSRDEAKGHRWLEDHFDEIDTNHDGQISKDELAAWHKTHAGEMRGKMQARLDAKFKAADKNGDGALTREEMQAGLPKLARHFDEIDANHDGKVTEDEIRAFMKARHDAHRAQHGTPAAAVTPGGPSATKGE
protein production: failed

MTNLDEFLEELSSIESHSQKIVKIDEHLKKLDEETKEDEDEDAAKIIQDRSTAREAEIALLMDLRQNFLPPPSMSSSSLQPPSSSTLAPSSSSSLQPPAPLIDFFRSSVSYSHQPPSSSTLATSSSPSLQPPSMSSSSLQPPASLREFFTSSVSYSHQPSSSSTLATSSFFPSSMPYSVRPPDSSDRPSLREFFPSSPSSSIQPPESSSSKRARLSNIFPSPLSSSPSPFVNPFLRPQAQEPTIPNFINPIPQISPGLPALFPNPNPNPNPNPIPNPIRNPDLVWTNRLQLVFDDAVVRLGGLFSATPKAINELISEEGLTGDQIRSHLQVLRDRQKAIADKLALE
protein production: failed

MTNLKLFNFEGSKVRTVILDEEPFFVGIDVASILGYSNPQKAMRDHCKKPAESLVNDSLGRPRRTLVLSESDVYRLVLRSDLPSAEKFENWLMDEVLPSIRKHGAYMTDDTIEKAITDPDFLIRLATNLKEEKSKRLEAEQKIEAQRPKVLFADAVSDTEGTILIRDLAKLIQQNGVDIGEKRLFEWLRQNGYLISRRGTDYNRPTQKSMELGLFKIKETAIMRSSGAHTAITAKVTGKGQLYFVNKFLEQSLVAN
protein production: failed

MTNMFSLLYPLISIVIGVVPLFIFKRNAYLLGIAAASYFTAIILKEIIQLSFRSFFITPTLPTYLSYGILTAIFEPGFAYLYLVLTKAKVNGQLGLSYGSYLAFYENAIFLGLLSLPNYLLLSVQFSVLSLALYGLERISSFILHLFWGFSSALSASKKNIKYLSVSMPYGMVDSVAAYYQLSHNISLVSTEIISLVVSISCLPIIVLWYKMDKRNQRLD
protein production: failed

MTNPGDGAAGAADRATLDHWRPRLAAIAAAAGQDDAAHDLGHLRRVWDAARAMLQAHPEADALVVLAASYLHDLVNLPKNHPERHLASRQAAAAARERLARAGFPAARLDAVAHAIEAHSFSAGIAPRTIEARIVQDADRLDALGPVGLVRMFHVGGSLGRALAHPSDPLAAQRALDDSRYTLDHIEAKLARLPHGMQTEAGRRLGEQRLAWLRDFRAAFSAQWGGGQLRLEHHHHHH
protein production: failed

MTNTAAPATVSAGWADALLASFGQAGYAKAEPAILQPAEPFLDLSGEDIRKSLYLTTDAGGEELCLRPDLTIPVARDYLASSSAGKPAGFCYLGPVFRQRGGKRSEFLQAGIESFGRKDRAAADAEMLALALGATAAFGVAELDIRTGDVALFTALIDALDLYPVWRRRLIKDFNRKSDLAQDLEQLTLATATPRNEYEGVLAALAGSDRKAALALVTDLMSIAGASNVGGRSVAEIADRFLEQSTLKGGALPRDALDKIKRFLAISGSPGDALLQLRALAADAKLDIVAAIDEFEARIGFMAARGIDLSATRFSTSFGRGVDYYTGFEFELHRKDNGDEPLVAGGRYDGLLSQLGATAPIAAVGFSVWIEAFTDLAHPANSSAGSAT
protein production: failed

MTPAELISRLEEAWLNEKFSPELLENKSELVECVMEQLTHMEENLQRVRKGDLKASVHRMEIDRIRFVLSSFLRSRLKKIEKFFPHVLEKEKSRADGDPSFLSPEEFAFAKEYLANTEVYLRAVALKHMPPNLQSVDMMKAVPEPCLDSFVFLRVKEKQENILVEPETDEQREYVVDLDEGSQHLMRYRTIAPLVASGAVQLI
protein production: failed

MTPHPARSKISPYRDIEIFMDLEDWSARLKVFADATRVRLLALLEQEELTVAELSAITRLAQPRVSTHLAKLKEAGLVRDRRAGVSAYYRFDEVSLDPAQRALWLALSTGSDDPLLRQDAERVAAVLANRAADQNWADSVAGDMERHYSPGRTWEALARTALPLLETGDVLDIASGDGVLAELVAPHATRYICIDTSARVVAAASERLRKLRNVEVREGDMHALPFPDASFDLVVLMHALTYAAKPAQAVAESARVLRPGGRLLLCSLAKHEHRAAVQAYGHVNLGFAAKELRKFVEKAGLDVSNLESVTREKRPPHFEVISLIAMKPGIGNRESGLVEGKSNASRRANA
protein production: failed

MTPQIATILGLVIMFIVATALPINMGAVAFALAFIIGGVWVGLEGKEVLAGFPGDLFLTLVGITYLFAIAQKNGTIDLLVHWAVRAVRGRIVAIPWVMFVITGLLTAFGALGPAAVAIIGPVALRFAKQYRINPLMMGLLVIHGAQGGGFSPISVYGGITNKVVEKAGLDVSEMAVFLTSLGFNLMMAIICFCAFGGLKLMRRQELSLADAQYVAVAGDQASHRGFAIEGHGALVAPGGGTLSTDPLALEAVSITRDRVITLIGLLGLGVAALIYNLNVGLVSITVAVALALISPNAQKGAVDGISWSTVLLISGVVTYIAVLEKSGAVDYIGTGVSHIGMPLLGALLVCYVGGIVSAFASSAAVLGATIPLAVPFLMQGQLGAAGVICALAVSSTIVDVSPFSTNGALVVASAAKEERDGLFRRFLIYSGLVVLLGPLAAWLVFVVPGWL
protein production: failed

MTPRRHDNDYERRKWRQVAGHFGMGAAFGALFAGIVLFNNYFGLSSVIATSEAPTLVRIIFVVGVAGSFAFMAAITGFLFLVHED
protein production: failed

MTQAASAAPQSAHSAKWKWAKRAFTAFFFIAVPVLLFMLVKNLDWQEVKKALASYKASTLAIAAVVAFASYATYCGFDILARYYTRHKLSIKQIVPVTFVCYAFNLNLSSWVGGIALRYRLYSRLGLEVSTITRILSLSLITNWLGYMLLAGFVFSMRFLELPEEWSIGTTTLQLIGFGLLAVCFSYLLACRFSKKRSWTIRDQEFNLPSMKQALMQASLGALNWALMAAVIYTLLPDKAFYPAILGVLLISSIAGVITHIPAGLGVLETVFITLLSHQFSKGSLLAALIGYRAIYFLLPLMIALVVYLVLEKRAKKMGEKNQRRMGQEANS
protein production: failed

MTQGTARAQQNNIPVGIALMLAATVVFALQDGISRHLASSYNTYMVVMIRYWFFAAFVIALAARSRGGLRAATRTAQPGLQIFRGLLLASEICVAVFAFTVLGLIESMAVFICYPLLVAALSGPVLGEKVGWRRWAAIGVGLVGVLIILQPGMGVFNPWAVVPLISALMFALYGLLTRYAARQDSTATSFFWTGVTGAVAMTAVGLWFWEPMSAPDWRWMALLCVSGALGHWLLIKCYEMAEASAVQPFAYFHLMWTAILGITVFGETLRSAVIIGAALIVAAGLFTLWRERAQSRSR
protein production: failed

MTQHRLNTSQWFGLLGWLVLCYAVAALGAMASIQAASFYAQLQRPAWAPPGWLFGSVWTVLYGMMAVSVWSVWRRGGWAGARVALTLFLVQLALNGLWSWLFFAWHLGAWAFTDIVALWLVLAATIGVFAKRQALAAWLLVPYLAWVSFAAALNFSVWQLNLQMLG
protein production: failed

MTQHYLRSAAYRDFSIHSIYGMSDDDIHAMFARLRWSSDSHQACPACGAWAQHYRRPARQQWRCKECGRDFSVTSATAFSSRKKSLRSILLATFYYVTGVKGLAGLGLSRMGDYSNKAAHVALGKLREAIFRTQDFTPLTGVVEIDGGYFGGKPRKPNRRGLRNDQAIVDRIAGRPAKRPWHASGMTRTNWEKRKNKRVVMIFRQQGRPGEGAVRSIAAVARSENDKDAAKLIARYVSSEAIIMTDESPAYATVSATHTHYAVRHSHEYVSAEGVNENQAESFFSRLRRWEYGVSHGVRPAYLADYANEMAWREDVRRFSIRTQVEMLLIKALTVGHSRWWRGYYQGKRRGTEILMNQGIPPSSASGASAQ
protein production: failed

MTQKEISIIHPRPSSIVAALYTLRDLNVDVAILHGPPGCSFKHARLLEEDGIHVVTTGLDENGFVFGGHDKLVQVINKSIELFNPKILGVVGTCASMIIGEEMHEAVLEANPDIPVIEVEVHAGYHNNTKGVIFALESALDAGIIDHKEFERQEYLEHHHHHH
protein production: not failed

MTQLFPGPIVRTPGLAELDARARDIFRRVVESYLETGEPVGSRTISKGGVALSPASIRNTMQDLAQLGLLDAPHTSAGRMPTHAGLRMFVDGFLEVGDVAEQEKRAIEARLAVKGRSFEEALAEASSILSGLAGGAGIVVTPVREGGVKHVEFVPLGGGQVLAVMVFEDGQVENRLMRQAPGVTPSALQEASNFLNARLRGRTLTEARTEMGGELDAARRQLNETAARLVEDGLAAWSGGEGDARSLIVRGQANLLADARAREDIDRVRQLFDDLSRRAQLIGLLDDVRDAEGVRIYIGAETRLFSLSGSSVIAAPYMTGRQKVLGAIGVIGPARLNYARVIPLVDYTARVLGRMMDG
protein production: failed
